Experimental data: the nanobody polyreactivity screen of Harvey et al. (2022)

Assay: yeast display, Sf9 membrane polyspecificity reagent, FACS + sequencing; frameworks hold sequencing errors
Procedure, shortened: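 Galactose-induced (36–48 hours) yeast carrying a synthetic nanobody display library were exposed to 10% biotinylated, detergent-solubilized Sf9 membrane reagent at 4 °C for 1 hour. FACS followed streptavidin microbead enrichment, using low and high (top ~1%) gates for expression (anti-HA) and reagent binding (streptavidin). Colony PCR, MiSeq 2 × 250 sequencing and CDR-length filtering followed. Labels for polyreactivity reflect the gate of origin.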

| Sequence | polyreactivity (PSR sort gate) |
| --- | --- |
| QVQLGESGGGLVQAGGSLRLTCAASGITFGPYAMGWSRQAPGKERELVAAITWRGGSTYYADSVKGRFTISRDNAKNTVYLQMNSLKPEDTAVYYCNAKTEYGSPRGYGSWGQGTQVTVSS | low polyreactivity |
| QVQLQESAGGMVQAGGSLRLRCSASGYISCDASMGWYRQAPGKERELAASITKGSRTNYADSVKGRFTIRDNAKNTVYLQMNSLKPEVTAVCYCAVTYPYWGDYTYWGQGTQVTVSS | low polyreactivity |
| QVQLVESGGGLVQAGGSLRLSCAASGLTFQYYAMGWYRQAPGKEREFVAAITRRGGNTYYADSVKGRFTISRDNAKNTVYLQMNSLKPEDTAVYYCAARYLQGRYDYWGQGTQVTVSS | high polyreactivity |
| QVQLVESGGGLVQAGGSLRLSCAASGITLVRYAMGWYRQAPGKERELVASIRGTGGSTYYADSVKGRFTISRDNAKNTVYLQMNSLKPEDTAVYYCAAGRYDYWGQGTQVTVSS | high polyreactivity |
| QVQLVESGGGLVQAGGSLRLSSAASGYIFGANGMGWYRQAPGKERELVATITSGGRTYYADSVKGRFTISRDNAKNNVYLQMNSLKPEDTAVYYCAAKLQYRWTWGYYYWGQGTQVTVSS | high polyreactivity |
| QVQLVESGGGLEQAGGSLRLSCAASGGTFARYVMGWYRQAPGKERELVAAITSGGRTYYADSVKGRFTISRDNAKNTVYLQMNSLKPEDTAVYYCATAPRRRATSYYYWGQGTQVTVSS | high polyreactivity |
| QVQLVESGGGLVQAGGSLRLSCAASGFIFQRYAMGWYRQAPGKERELVAAITRTGGRTYYSDSVKGRFTISRDNAKNTVYLQMNSLKPEDTAVYYCAADRTMSYEYWGQGTKVTVSS | high polyreactivity |
| QFQLVESGGGLVQAGGSLRISCAASGSTFVLNAMGWYRQAPGKDREWVAAISQSDYSTYYSDSVKGRFTISRDNAKNTVYLQMNSLKPEDTAVYYSAREYAHLSFLSTSSDYWGQGTQVTVSS | low polyreactivity |
| QVQLVESGGGLVQAGGSLRLSCAASGSIFEFNTMGWYRQAPGKERELVAAISSSGGRTYYADSVKGRFTISRDNAKNTVYLQMNSLKPEDTAVYYCNAVSYYGARYDYWGQGTQVTVSS | high polyreactivity |
| QVQLEDSGGGLVQAGGSLRLSCAASGRTLYLYAMGWYRQAPGKERELVAAIDWRGTSTYYADSVKGRFTISRDNAKNTVYLEMNSLKPEDTAVYYCNARFRSYLRWYQRDYWGQGTKVTVSS | low polyreactivity |
| QVQLVESGGGVVQAGGSLRLSFAASGSTFPGNAMGWYRQAPGKERELVASISGGGDSTYYADSVKGRFTISRDNAKNTVYLQMNSLKPEDTADYYCAARSTRGHYTAYDYWGQGTQVTVSS | low polyreactivity |
| QVQLVESGGGLVQAGGSLRLSCAASGSTFCYYGMGWYRQAPGTERELVAAISWSGGTFYADSVKGRFTISRDNAKNTVYLQMNSLKPEDTAVYYCATDYGGPITGYEYWGQGTQVTVSS | low polyreactivity |
| KVQLVESGGGLVQAGGSLRLSCAASGSTFPPNAMGWNRQAPGKERELVAVISYSDGSTYYADSVKGRFTISRDNAKNTVYLQMNSLKPEDTAVYYCAAYSGYGGVSMYYWGQGTQVTVSS | low polyreactivity |
| QVQLVESGGGLVQAGGSLRLSCAAYGRTFGPNVMGWYRQAPGKERELVAVITSSGGRTYYADSVKGRFTISRDNAKNTVFLQMNSLKPEDTAVYSCAADAKKFVGTKNAEHVYWGQGTQVTVSS | low polyreactivity |
| QVQLVESGGGLVQAGGSLRLSCAASGFTIDSNVMGWYRQAPGKDRELVAAITGDDTTYYADSVKGRFTISRDNAKNTVYLQMNSLKPEDTAVYYCAADETESLEYTAYDMYYWGQGTQVTVSS | low polyreactivity |
| QVQLVESGGGLVQAGVRLRLSCADSGSTFYLNAIGWYRQAPGKERELVAAITRVGRTYYADSVKGRFTISRDNAKNTVYLQMNSLKPEDTAVYYCNALGHYKLWGLGTQVTVSS | high polyreactivity |
| QVQLVESGGGLVQAGGSLRLSCPASGGIFGRYAMGWYRQAPGKERELVAAISSSGGRTYYADSVKGRFTISRDNAKNTVYLQMNSLKPEDTAVYYCNADRHSTYGYWGQGTQVTVSS | high polyreactivity |
| QVQLVESGGGLVQAGGSLRLSCAASGITFDTYAMGWYRQAPGKERELVAAISKSGGSTYYADSVKGRFTISRDNAKNTVYLQMNSLKPEDTAVYYCAKDAGSRTVREFGYWGQGTQVTVSS | high polyreactivity |
| QVQLVESGGGLVQAGGSLRLSCAASGRIIGRYVRGWYRQAPGKERELVAAITRGGSTNYADSVKGRYTISRDNAKNTVYLQMNSLKPEDTAVYYCARAYSTVNRYSMYYWGQGTQVTVSS | high polyreactivity |
| QVQLVESGGGLVQAGGSLRLSCAASVIIFYPYAMGWSRQAPGKEMELVAAITARSANTYYADSVKGRFTISRDNAKNTVYLQMNSLKPEDTAVYYCAAAIYSYRTPYYYWGQGTQVTVSS | high polyreactivity |
| QVQLVESGGGLVQAGGSLRLSCAASGFTFHKYAMGWYRQAPGKERELVAAISWSGDRTYYADSVKGRFTISRDNAKNTVYLQMNSLKPEDTAVYYCAAATRYSFYIKYDYWGQGTQVTVSS | high polyreactivity |
| QVQLVESGGGLVQAGGSLRLSCAASGRIFGYNAMGWYREAPGKERELVAAITGSGGSTYYADSVKGRFTISRDNAKNTVYLQMNSLKPEDTAVYYFATAYAVYHVEYGYWGQGTQVTVSS | low polyreactivity |

| Sequence | polyreactivity (PSR sort gate) |
| --- | --- |
| QGQLVESGGGLVQAGGSLRLSCAASGRIFYQNDMGWYIQAPGKERELVADIASGGSTYYADSVKGRFTISRDNAKNTVYLQMNSLKPEDTAVYYCASAVLYGDGWYYYWGQGTQVTVSS | low polyreactivity |
| QVQLVESGGGLVQAGGSLRLSCAASGGIFGLYTMGWYRQAPGKERELVAAISKTGGSTYYADSVKGRFTISRDNAKHTVYLQMNSLKPEDTAVYYCAADGPYDDYEYWGQGTQVTVSS | high polyreactivity |
| QVQLVESGGGLVQAGGSRRLSWAASGFIFARNTMGWYRQAPGTERELVAAITKSGGSTYYADSVKGRFTISRDNAKNTVYLQMNILKPEDTAVYYCGARSYTLRGVYFSGYDYWGQGTQVTVSS | low polyreactivity |
| QVQLVESGGGLVQAGGSLRLSCAASGFTFYYYAMGWYRQAPGKESDLVAAISWSGGTTYYADSVKGRFTISRDNAKNTVYFQMNSLKPEDPAVYYCAADIRDPGVPMDYWGQGTQVTVSS | low polyreactivity |
| QVQLVESGGGLDQAGGSLRLSCAASGFTFDENAMGSYRQAPGINYSGASTYYADSVKGRFTISRDNAKNTVYLQMNSLKPEDTAVYYCAAEVVAQMNYWGQGTQVTVSW | low polyreactivity |
| QVQLVESGGGLDQAGGSLRLSCAASGFTFTAYDMGWYRQAPGKVRELVAAINWSGSRTYYADSVKGRFTISRDNAKNTVYLQMNSLKPEDTAVYYCNTATSKSSYLHYDYWGQGTQVTVSS | high polyreactivity |
| QVQVVESGGGLDQAGGSLGLSCAASGSIFIKYAMGWSRQAPRKERELVAAISRRGGSPYYADSVKGRFTISRDNAKNTVYLQMISLKPEDTAVYYCAAVNISFGYADRFYYVYRGDYWGQGTQVTVSS | high polyreactivity |
| QVQLVESGGGLVQAGGSLRLSCSASGSTFHYNAMGWYRQAQGKERELVAYISWRGASKYDADSVKGRFTISRDNAKNTVYLQMSSMKTEDTAVFFFNAVLTSYWYNSYKSRGDYWGQGTLVTVSS | high polyreactivity |
| QVQLVESGGGLVQAGGSLRLSCAASGSTFFVYAMGWYRQAPGKERELVATISSAASTYYADSVKGRFTISRDNAKNTVYLQMNSLKPEDTAVYYCAAGYFIRTRSRYRYDYWGQGTQVTVSS | high polyreactivity |
| QVQLVESRGGLVQAGGSLRLSCAASGRTFDGYVMGWYRQAPGKERELVAAISWGGSYTYYADSVKGRFTISRDNAKNTVYLQMNSLKPEDTAVYYCAKDTVPNVRDYWGQGTQVTVSS | low polyreactivity |
| QVQLVESGGGLVQAGGSLRLSCAASGSTLYPYDMGWYRQAPGTERELVAAIDSGGSTNYADSVKGRFTISRDNAKNTVYLQMNSLKPEDTAVYFFAADASGENDYWGQGTQVTVSS | low polyreactivity |
| QVQLVESGGGLVQAGGSLRLSCAASGSTFDFYAMGWYRQAPGKERELVAAITYSGGSTYYADSVKGRFTISRDNAKNTVYLQMNSLKPEDTAVYYCAAARVWQYSDFFLYYYWGQGTQVTVSS | low polyreactivity |
| QVQLVESGGGLVQAGGSLRLSCAASGSIVYANTMGRYRQAPGKERELVAAIRSVGRTYYADSVKGRFTISRDNAKNTVYLQMNSLKPADTAVYYCAADPRSYFTSEYWGQGTQVTVSS | low polyreactivity |
| QVQLVESGGGLVQAGGSLRLSCAASGITFELYAMGLYIQAPGKERELVAAISSNGGITFYADSVKGRFTISRDNAKNTVYLQMNSLKTEDTAVYYCAARGYIRGPSKLDYWGQGTQVTVSS | high polyreactivity |
| QVQLVESGGGLVQAGGSLRLSCAASGFTFPVYAMGWYRQAPGKERELVAAISSGGRTDYADSVKGRFTISRDNAKNTVYLQMNSLKPEDTAVYYCNKARSDHDGRNDSWGQGTQVTVSS | high polyreactivity |
| QVQLVESGGGLVQAGGSLRLSCAASGRTFYGYAMGWYRQAPGKERELVAAITYSGGRTYYADSVKGRFTISRDNAKNTVYLQMNSLKPEDTAVYYCNTGYWYVSLGSYDYYGEYDYWGQGTQVTVSS | high polyreactivity |
| QVQLVESGGGLVQAGGSLRLSCAASGSTFGFYAMGWYRQAPGKERELVAVISSGGGTNYADSVKGRFTISRDNAKNTVYLQMNSLKPEDTAVYYCAASRFALSGGYDYWGQGTQVTVTS | low polyreactivity |
| QVQLVESGGGLVQAGGSLRLSCAASGFIFNAYAMGWYRQAPGKERELVAAITFRTTSTYYADSVKGRFTISRDNAKNTVYLQMNSLKPEDTAVYYCAALWIYSGWRYDYWGQGTQVTVSS | high polyreactivity |
| QVQLVESGGGLVQAGGSLRLICAASGIIFGGYDMGWYRQAPGKERELVAGIRSGGSTYYADSVKGRFTISRDNAKNTVYLQMNSLKPEDTAVYYCAKYVPIPYYSYLFGSYDYWGQGTQVTVSS | low polyreactivity |
| QVQLVESGGGLVQAGGSLRLSCAASGSIFKYYTMGWYRQAPGKERELVAAISGSGSRTYYADSVKGRFTISRDNAKNTVYLQMNSLKPEDTAVYYCAAEVKDSFVNAKSYYWGQGTQVTVSS | high polyreactivity |
| QVQLVESGGGLVQAGGSLRLSCAASGSIFTPYAMGWYRQAPGKERELVAGIRSSGGRTYYADSVKGRFTISRDNAKNTVYLQMNSLKPEDTAVYYCAARVGGIYRNDYWGQGTQVTVSS | low polyreactivity |
